From paper PMC10209032, “Molecular determinants for Rous sarcoma virus intasome assemblies involved in retroviral integration” come the findings set out here.

The target in data set [1] is Rous sarcoma virus (RSV) integrase, WT full-length IN (1–286 aa), Prague A (Rous sarcoma virus (Prague A)). The data set can be described thus: not stated; oligomeric state of free purified IN proteins, without DNA; shown in Fig. S5, method and conditions not given.
For data set [2], the target named is Rous sarcoma virus integrase IN (1–278), C-terminal tail truncation (Rous sarcoma virus (Prague A)). The data set can be described thus: cryo-EM structure; STC intasome assembled from IN (1–278) 35 μM and the viral/target DNA substrate 10 μM by dialysis, purified by SEC in 20 mM HEPES pH 7.5, 650 mM NaCl, 1 mM TCEP; single particle, C2 symmetry, 3.36 Å; the IN oligomer stands on two DNA substrates. A general note: In gel filtration, larger molecules generally elute earlier.

In data set [3] the target is Rous sarcoma virus integrase IN (1–286) R244A (Rous sarcoma virus (Prague A)). As to the kind of experiment: not stated; oligomeric state of free purified IN proteins, without DNA; shown in Fig. S5, method and conditions not given.
Data set [4] has as its target Rous sarcoma virus integrase IN (1–286) R244E (Rous sarcoma virus (Prague A)). The description is as above.
Data set [5] has as its target Rous sarcoma virus integrase IN (1–286) Y246A (Rous sarcoma virus (Prague A)). Described as above.
Another data set has as its target T1, RSV IN (1-278) (Rous sarcoma virus, Prague A, UniProt P03354 1281-1558).
T1 sequence: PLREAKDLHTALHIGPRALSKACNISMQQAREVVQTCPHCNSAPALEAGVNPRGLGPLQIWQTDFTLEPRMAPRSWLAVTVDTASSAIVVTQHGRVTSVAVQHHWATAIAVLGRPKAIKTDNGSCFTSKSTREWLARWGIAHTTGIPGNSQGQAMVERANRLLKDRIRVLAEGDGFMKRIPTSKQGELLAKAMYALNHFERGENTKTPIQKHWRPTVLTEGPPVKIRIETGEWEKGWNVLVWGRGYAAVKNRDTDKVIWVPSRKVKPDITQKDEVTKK
The data set can be described thus: cryo-EM (3.36 A); SEC; Zn2+ and Mg2+ listed in structure table; octameric STC; STC (IN 1-278, cryo-EM prep): 35 uM IN + 10 uM DNA in 20 mM HEPES pH 7.5, 1 M NaCl, 20% glycerol, 1 mM TCEP, dialyzed to 0.125 M NaCl, solubilized at 0.75 M NaCl; SEC in 20 mM HEPES pH 7.5, 650 mM NaCl, 1 mM TCEP. Mutant STC 18 h at 4 C; CSC with MK-2048 18 h at 18 C (buffer not in material). To be noted: protein: recombinant; chain copies: 8; branched; S2 pairs with S1[1-20] leaving 5' AA unpaired; S3 pairs with S1[27-42]; self-complementary S1[21-26]; GTGCAC pairs two copies; 2 copies of each strand in STC.

In turn, “Rous sarcoma virus (RSV) integrase, WT full-length IN (1–286 aa), Prague A (enzyme)” came in with a stoichiometry N in data set [1] of 2.

For the molecule “Rous sarcoma virus integrase IN (1–278), C-terminal tail truncation (enzyme)”, in data set [2], the stoichiometry N stood at 8.

The molecule “Rous sarcoma virus integrase IN (1–286) R244A (enzyme)” displayed a stoichiometry N in data set [3] of 2.

“Rous sarcoma virus integrase IN (1–286) R244E (enzyme)”: the stoichiometry N in data set [4] was determined as 2.

In data set [5], “Rous sarcoma virus integrase IN (1–286) Y246A (enzyme)” returned a stoichiometry N of 2.

B1: RSV STC substrate (viral/target DNA) (mixed)
DNA 1: GAGTATTGCATAAGACAACAGTGCACGAAAGAAGAAGACACT
DNA 2: AATGTTGTCTTATGCAATACTC
DNA 3: AGTGTCTTCTTCTTTC
With B1, the binding result in the data set with RSV IN (1-278) is given as “binds”.

A word on the stoichiometry N: it is a count of units in the complex or per binding partner.
